The series can be described thus: protein stability index of a GFP-peptide fusion (GPS, HEK-293T) (PSI 1-6); higher = more stable. As to conditions: c terminus: a fixed tail appended.

± gives the standard deviation.
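Further: 24-mer peptide tiles fused after GFP, lentivirally expressed, FACS-sorted into six equal bins by GFP/DsRed ratio, decoded by Illumina sequencing, PSI is the read-weighted mean bin number.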

As to YWPLEKDSRIRFGFLTVTNLGVEN [PTPN9], the protein stability index by setting is: (treatment: DMSO) 2.47 ± 0.36; (treatment: MLN4924 1 uM, 8 h) 2.43 ± 0.4.
